# Source: patent publication US9217032B2, “Methods for treating colorectal cancer” (LES LABORATOIRES SERVIER, priority 2010, dated 2015)
# How the values were obtained:
# [1] = test system: SW620 metastatic colorectal cancer cells; test: Growth of SW620 cells in culture, monoclonal antibodies; format: cell-based, human; conditions: for reduction of growth of SW620 cells compared to control antibody: MAb1-MAb4, 48 hours; for Cell numbers: SW620, 48 hours, treated every 12 hours, average cells per well minus cells seeded (T0), CT antibody-T0 158556
# Procedure: (§1) SW620 cells were seeded into 6-well plates, serum-starved overnight, then treated every 12 hours with PBS, 3 microgram/ml control antibody (Mouse anti-human IgG1, Calbiochem, Ref #411451) or four different anti-PG monoclonal antibodies, MAb3, MAb4, MAb2, and MAb1. The experiment was carried out in duplicate, and the technician was blinded as to the contents of the treatment solutions. Forty-eight hours after the start of the treatments the number of surviving cells in each well were counted six times and averaged.
# In a separate experiment, SW620 cells were seeded into 6-well plates (100,000 cells per well) and treated similarly above with 5 μg/ml of anti-hPG monoclonal antibodies 5-23 (i.e., MAb5-MAb23) or 5 μg/ml control antibody. After 48 hours the number of viable cells were counted from which the number of cells at the beginning of the experiment (i.e., T0) were subtracted. The number of surviving cells in the specific antibody treated wells was then expressed as a percentage of the control.
# [2] = test system: T84 metastatic colorectal cancer cells; test: Growth of T84 cells in culture; format: cell-based, human; conditions: FIG. 7; P value 0.0370 Mann Whitney
# Procedure: as §1
# The methods employed for this experiment were similar to those used to measure the effect of anti-progastrin monoclonal antibodies on SW620 cells, except that the anti-progastrin antibody used was anti-hPG MAb3.
# SW620 cells = test: Hepatic metastases by SW620 cell xenografts in nude mice, monoclonal antibody; format: in vivo, BALBc/nude mice
# Procedure: A total of 5×10^6 SW620 cells were injected into the spleen of each of 20 BALBc/nude mice at age 5 weeks old. Two minutes after injection of the cells, the spleens were surgically removed. After recovery, mice were randomly divided into two groups, each of which was subjected to one of two different treatments. Specifically, 10 mice were injected with a control antibody (anti-human IgG1Fc) diluted in PBS, and 10 mice were injected with anti-hPG monoclonal antibody MAb3, also diluted in PBS. The dose of antibodies was 8 mg/kg in a volume of 150 microliters. Injections were made intraperitoneally twice per week for six weeks. Once per week each mouse was weighed. Six weeks later, after the course of injections was finished, the mice were euthanized with carbon dioxide and the livers were removed and the number of visible metastases present was counted.
# [3] = test system: T84 metastatic colorectal cancer cells; test: Pre-treatment of T84 cells: ALDH1 positive cells (ALDEFLUOR); format: cell-based, human; conditions: pre-treatment 72 hours, 1 μg/ml, FIG. 24
# Procedure: (§2) Cells tested were from the metastatic colorectal cancer cell lines T84 and SW620. Cells were first grown in conventional adherent cultureware for 72 hours in the presence of the anti-progastrin monoclonal antibody MAb3 (1 μg/ml), a control monoclonal antibody, the chemotherapeutic agent 5-fluorouracil (5FU 10 μM), or the solvent dimethylsulfoxide (DMSO). After treatment, cells were subjected to two assays. In the first, the percentage of cells positive for the cancer stem cell marker ALDH1 were determined using an ALDEFLUOR kit (Stemcell Technologies). In the second assay, for each treatment group, cells were plated into six wells of low adherence 96 well-plates at a density of 500 cells per well in 100 μl of serum-free medium containing bFGF and EGF and grown for 11 days without further treatment. After the end of this period, the number of spheroids per well was then counted.
# [4] = test system: SW620 metastatic colorectal cancer cells; test: Pre-treatment of SW620 cells: ALDH1 positive cells (ALDEFLUOR); format: cell-based, human; conditions: pre-treatment 72 hours, 1 μg/ml, FIG. 25
# Procedure: as §2
# [5] = test system: SW620 colorectal cancer cells; test: Cells isolated from SW620 metastases of treated nude mice: cell count and spheroid growth; format: in vivo, BALBc/nude mice
# Procedure: (§3) Using standard techniques, immunodeficient BALBc/nude mice were given intra-splenic injections of human metastatic SW620 colorectal cancer cells. The mice were then administered the anti-hPG monoclonal antibody MAb3 or a control monoclonal antibody twice per week for a total of six weeks. For each antibody, the dose was 8 mg/kg. At the end of the treatment period tissue was dissected from metastases from both treated and control mice. Tumor cells were disaggregated by treatment of the dissected tissue with Accumax, filtered and counted. A total of 23,800 viable tumor cells were obtained from metastatic tissue from the mice treated with MAb3, and 36,400 were obtained from control mice.
# (§4) For the spheroid test, for each of the treated and control cells, 2,000 cells/well were seeded into five wells of low adherence cultureware in M11 medium supplemented with bFGF and EGF. Cells were grown for seven days, and then the number of spheroids that formed in each well was counted. For the transplantation test, spheroids developing from cells isolated from treated and control metastases were pooled, disaggregated and counted. A total of 20,000 cells were obtained from spheroids derived from treated metastases, and 110,000 cells were obtained from spheroids derived from control metastases. […] Tumor volume was then calculated through time in both animals.
# [6] = test system: SW620 colorectal cancer cells; test: Initiation of new tumors after transplantation of cells from treated metastases; format: in vivo, BALBc/nude mice; conditions: 6,500 cells subcutaneously into thighs of two nude mice; tumor volume; FIG. 29
# Procedure: as §3, §4
# [7] = test system: CRC1 primary colorectal cancer cells; test: Spheroid formation by CRC1 cells in low adherence culture, monoclonal antibodies; format: cell-based, human; conditions: CRC1, 3 μg/ml; p<0.05 one-way ANOVA with Bonferroni; FIG. 20
# Procedure: CRC1 cells were obtained from a human colon carcinoma biopsy according to standard procedures. After being dissociated in Accumax (Sigma) for 45 minutes at 37° C., cells were plated in low adherence 96 well-plates (Corning) at a density of 100 cells per well in M11 medium (DMEM/F12 with 20 ng/ml EGF, 10 ng/ml FGF, 20 μg/ml insulin, N2 supplement, 2 μg/ml cyproflaxin, 5 μg/ml gentamycin and 3 mg/ml glucose). For each treatment arm, 10 wells were used. Starting on the first day, cells were treated twice daily with one of four different anti-progastrin monoclonal antibodies, MAb5, MAb8, MAb13 or MAb16 (3 μg/ml) or the same concentration of monoclonal antibody P3X63Ag8 (ATCC, Ref TIB-9) or medium with no antibody added as controls. Thereafter, treatment was performed once daily for 8 days. Spheres were photographed daily for subsequent counting. All experiments were carried out in blinded fashion. After the conclusion of the experiment, the number of spheres from each treatment art was counted.
# [8] = test system: CRC1 primary colorectal cancer cells; test: Pre-treatment of CRC1 cells: ALDH1 expressing cells by FACS; format: cell-based, human; conditions: 72 hours in conventional adherent culture; FIG. 22
# Procedure: (§5) CRC1 cells were obtained from a human colon carcinoma biopsy according to standard procedures. After being dissociated in Accumax (Sigma) for 45 minutes at 37° C., CRC1 cells (100,000 cells/well) were grown under conventional adherent culture conditions in serum free DMEM medium for 72 hours in the presence or absence of anti-hPG monoclonal antibodies MAb5, MAb8, MAb13 or MAb16. Experiments were carried out in blinded fashion. At the end of the treatment period, two different assays were performed on the cells. First, the percentage of cells expressing ALDH1, a marker of colorectal cancer stem cells, was determined by FACS. In the second assay, for each treatment group, 200 cells/well were plated in six wells of a low adherence 24-well plate in 500 μl of serum-free M11 medium supplemented with bFGF and EGF, and grown for 7 days without further treatment. At the end of this period, photographs were taken and the number of spheres per well was counted, and sphere surface area measured.
# [9] = test system: CRC1 primary colorectal cancer cells; test: Pre-treatment of CRC1 cells: spheroids in low adherence culture; format: cell-based, human; conditions: 72 hours pre-treatment, then 7 days low adherence without antibody, FIG. 23, MAb5, MAb8, MAb16 p<0.05
# Procedure: as §5
Molecule,reduction of growth of SW620 cells compared to control antibody [1],Cell numbers [1],reduction of growth of T84 cells compared to control antibody [2],"mean weight of liver metastases (SW620 cells; 8 mg/kg i.p. twice per week, six weeks, control mice 167 mg, not statistically significant) [mg]","decrease of mean number of metastases versus control antibody (SW620 cells; 8 mg/kg i.p. twice per week, six weeks, p=0.0372) [%]","mean number of metastases (SW620 cells; 8 mg/kg intraperitoneally twice per week for six weeks, control antibody 7.3)",number of ALDH1 positive cells compared to control antibody [3],number of ALDH1 positive cells compared to control antibody [4],"viable tumor cells obtained from metastatic tissue ([5]; 8 mg/kg twice per week for six weeks, control mice 36,400)","growth as spheroids of cells isolated from in vivo metastases ([5]; mice treated 8 mg/kg twice per week six weeks, 2,000 cells/well, seven days, FIG. 28)",ability to initiate new tumor growth after transplantation [6],number of spheroids formed compared to non-specific antibody and medium alone [7],number of CRC1 cells expressing ALDH1 compared to control [8],number of spheroids formed after pre-treatment compared to control [9]
"MAb3: murine N-terminal anti-hPG monoclonal antibody, hybridoma 6B5B11C10, VH SEQ ID NO:12, VL SEQ ID NO:13 (antibody, V domains shown) VH: EVQLQQSGTVLARPGASVKMSCKASGYIFTSYWVHWVKQRPGQGLEWIGGFYPGNSDSRYNQKFKGKATLTAVTSASTAYMDLSSLTNEDSAVYFCTRRDSPQYWGQGTTLTVSS VL: DVLMTQTPLSLPVSLGDQASISCRSSQSIVHSNGNTYLEWYLQKPGQSPKLLIYKVSNRFSGVPDRFSGSGSGTDFTLKISRLEAEDLGVYYCFQGSHVPFTFGGGTKLEIK",more effective than the others,50056,effective to reduce the growth of T84 metastatic colorectal cancer cells,96,41,4.3,reduced,reduced,"23,800",reduced,reduced,–,–,–
"MAb4: murine N-terminal anti-hPG monoclonal antibody, hybridoma 20D2C3G2, VH SEQ ID NO:14, VL SEQ ID NO:15 (antibody, V domains shown) VH: QVQLQQSGAELMKPGASVKISCKATGYTFSSSWIEWLKQRPGHGLEWIGEFLPGSGSTDYNEKFKGKATFTADTSSDTAYMLLSSLTSEDSAVYYCATDGNYDWFAYWGQGTLVTVSA VL: DLVMTQTPLSLPVSLGDQASISCRSSQSLVHSSGVTYLHWYLQKPGQSPKLLIYKVSNRFSGVPDRFSGSGSGTDFTLKISRVEAEDLGVYFCSQSTHVPPTFGSGTKLEIK",more effective than the others,52984,–,–,–,–,–,–,–,–,–,–,–,–
"MAb8: murine C-terminal anti-hPG monoclonal antibody, hybridoma 1C10D3B9, VH SEQ ID NO:59, VL SEQ ID NO:63 (antibody, V domains shown) VH: EVQLVESGGGLVKPGGSLKLSCAASGFTFTTYAMSWVRQTPEKRLEWVATISSGGTYTYYPDSVKGRFTISRDNAKNALYLQMSSLRSEDTAMYYCATQGNYSLDFWGQGTSLTVSS VL: DIVMTQAASSNPVTLGTSASISCRSSKSLRHTKGITFLYWYLQKPGQSPQLLIYQMSNLASGVPDRFSSSGSGTDFTLRISRVEAEDLGVYYCAQNLELPLTFGAGTKLELK",–,–,–,–,–,–,–,–,–,–,–,effective to reduce the number spheroids,reduce the number CRC1 primary colorectal cancer cells expressing ALDH1,effective to reduce the number of spheroids
